{
  "source": "paper doi:10.1101/2020.07.24.219956",
  "key": {"[1]": {"target": "Human neutrophil-derived myeloperoxidase (human) (UniProt P05164)", "experiment": "native MS"}, "[2]": {"target": "Human neutrophil-derived myeloperoxidase (human) (UniProt P05164)", "experiment": "mass photometry"}},
  "data": [
    {"substance": "Human neutrophil-derived myeloperoxidase (from UniProt P05164 279-745; P05164 279-745) (enzyme)", "values": [
      {"measurement": "stoichiometry N", "setting": "[1]", "result": 2},
      {"measurement": "Kd", "setting": "[2]", "result": 0.05, "unit": "nM"},
      {"measurement": "percent diprotomer (ααββ)", "setting": "[2]", "result": 93, "unit": "%"},
      {"measurement": "percent monoprotomer (αβ)", "setting": "[2]", "result": 7, "unit": "%"},
      {"measurement": "stoichiometry N", "setting": "[2]", "result": 2}
    ]}
  ]
}
